Reference: IntAct's records for PubMed 15292222

B1: Protein phosphatase 1 regulatory subunit 12A (Homo sapiens), O14974 (parent)
chain: MKMADAKQKRNEQLKRWIGSETDLEPPVVKRQKTKVKFDDGAVFLAACSSGDTDEVLKLLHRGADINYANVDGLTALHQACIDDNVDMVKFLVENGANINQPDNEGWIPLHAAASCGYLDIAEFLIGQGAHVGAVNSEGDTPLDIAEEEAMEELLQNEVNRQGVDIEAARKEEERIMLRDARQWLNSGHINDVRHAKSGGTALHVAAAKGYTEVLKLLIQAGYDVNIKDYDGWTPLHAAAHWGKEEACRILVDNLCDMEMVNKVGQTAFDVADEDILGYLEELQKKQNLLHSEKRDKKSPLIESTANMDNNQSQKTFKNKETLIIEPEKNASRIESLEQEKVDEEEEGKKDESSCSSEEDEEDDSESEAETDKTKPLASVTNANTSSTQAAPVAVTTPTVSSGQATPTSPIKKFPTTATKISPKEEERKDESPATWRLGLRKTGSYGALAEITASKEGQKEKDTAGVTRSASSPRLSSSLDNKEKEKDSKGTRLAYVAPTIPRRLASTSDIEEKENRDSSSLRTSSSYTRRKWEDDLKKNSSVNEGSTYHKSCSFGRRQDDLISSSVPSTTSTPTVTSAAGLQKSLLSSTSTTTKITTGSSSAGTQSSTSNRLWAEDSTEKEKDSVPTAVTIPVAPTVVNAAASTTTLTTTTAGTVSSTTEVRERRRSYLTPVRDEESESQRKARSRQARQSRRSTQGVTLTDLQEAEKTIGRSRSTRTREQENEEKEKEEKEKQDKEKQEEKKESETSREDEYKQKYSRTYDETYQRYRPVSTSSSTTPSSSLSTMSSSLYASSQLNRPNSLVGITSAYSRGITKENEREGEKREEEKEGEDKSQPKSIRERRRPREKRRSTGVSFWTQDSDENEQEQQSDTEEGSNKKETQTDSISRYETSSTSAGDRYDSLLGRSGSYSYLEERKPYSSRLEKDDSTDFKKLYEQILAENEKLKAQLHDTNMELTDLKLQLEKATQRQERFADRSLLEMEKRERRALERRISEMEEELKMLPDLKADNQRLKDENGALIRVISKLSK

Variants of: B1
Conditions: with dapk3_human DAPK3, O43293
dapk3_human DAPK3, O43293, sequence (O43293 whole entry, looked up): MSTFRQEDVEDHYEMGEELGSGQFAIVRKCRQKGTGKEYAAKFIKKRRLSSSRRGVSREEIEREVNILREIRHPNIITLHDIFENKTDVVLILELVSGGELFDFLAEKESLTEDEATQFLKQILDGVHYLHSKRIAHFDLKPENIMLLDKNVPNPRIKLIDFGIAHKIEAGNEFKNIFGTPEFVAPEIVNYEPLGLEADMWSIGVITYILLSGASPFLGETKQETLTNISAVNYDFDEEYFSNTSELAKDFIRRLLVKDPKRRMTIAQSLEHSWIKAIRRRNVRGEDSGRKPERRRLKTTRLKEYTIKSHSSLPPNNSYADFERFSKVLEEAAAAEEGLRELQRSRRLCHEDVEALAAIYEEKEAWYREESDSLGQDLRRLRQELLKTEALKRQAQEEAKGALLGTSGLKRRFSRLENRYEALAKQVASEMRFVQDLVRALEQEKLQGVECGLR

effect of a mutation on the interaction | Variant
disrupting interaction | L1007A;L1014A;L1021A;L1028A
